Assay results from publication PMC4826616.
Values belong to the substance of their own block, whether it stands above or below them.

Key:
[1] = target: MDA-modified low density lipoprotein; test: ELISA
[2] = target: complement factor H (purified CFH) (UniProt P08603); test: flow cytometry on cells
[3] = target: MAA-modified bovine serum albumin (bovine) (UniProt P02769); test: ELISA

- reduction of binding against plasma homozygous for the Y402 allele [1]: 52%
Substance: CFH variant H402 (from UniProt P08603 19-1231) (natural protein)

- percent competition of the binding of CFH to apoptotic blebs [2]: > 60%
Substance: MAA-modified bovine serum albumin (from UniProt P02769 25-607)

- Kd [3]: 64 nM
Substance: complement factor H (purified CFH) (from UniProt P08603 19-1231) (natural protein)
